Results published in PMC7020226, “Enzymatic Properties of Recombinant Phospho-Mimetic Photorespiratory Glycolate Oxidases from Arabidopsis thaliana and Zea mays” (Plants, 2019).
Where a chain is given by its changes, count along the chain named. In names and notes the source's numbering stands.

B1: ZmGO1 (Zea mays) (protein)
chain: MGEITNVMEYQAIAKQKLPKMAYDYYASGAEDEWTLQENREAFSRILFRPRILIDVSKIDMTTTVLGFKISMPIMVAPTAMQKMAHPDGEYATARAAAAAGTIMTLSSWATSSVEEVASTGPGIRFFQLYVYKDRKVVEQLVRRAERAGFKAIALTVDTPRLGRREADIKNRFVLPPHLTLKNFEGLDLGKMDQAADSGLASYVAGQVDRTLSWKDVKWLQTITTLPILVKGVLTAEDTRLAVANGAAGIIVSNHGARQLDYVPATISALEEVVKAARGQLPVFVDGGVRRGTDVFKALALGAAGVFVGRPVVFSLAAAGEAGVSNVLRMLRDEFELTMALSGCTSLAEITRKHIITESDKLSAIPSRL
notes: full length, N-terminal His-tag, pET28a, expressed in Escherichia coli
B2: ZmGO1 (Zea mays; T159V) (protein)
chain: B1 chain with T159V
notes: as for B1
B3: AtGOX2 (Arabidopsis thaliana; T265D) (protein)
chain: MEITNVTEYDAIAKAKLPKMVYDYYASGAEDQWTLQENRNAFARILFRPRILIDVNKIDMATTVLGFKISMPIMVAPTAFQKMAHPDGEYATARAASAAGTIMTLSSWATSSVEEVASTGPGIRFFQLYVYKNRKVVEQLVRRAEKAGFKAIALTVDTPRLGRRESDIKNRFTLPPNLTLKNFEGLDLGKMDEANDSGLASYVAGQIDRTLSWKDIQWLQTITNMPILVKGVLTGEDARIAIQAGAAGIIVSNHGARQLDYVPADISALEEVVKATQGRVPVFLDGGVRRGTDVFKALALGASGIFIGRPVVFALAAEGEAGVKKVLQMLRDEFELTMALSGCRSLSEITRNHIVTEWDTPRHLPRL
B4: AtGOX2 (Arabidopsis thaliana; T4D) (protein)
chain: B3 chain with T4D, D265T
B5: AtGOX2 (Arabidopsis thaliana) (protein)
chain: B3 chain with D265T
notes: as for B1
B6: AtGOX2 (Arabidopsis thaliana; T158V) (protein)
chain: B3 chain with T158V, D265T
B7: AtGOX1 (Arabidopsis thaliana; T265D) (protein)
chain: MEITNVTEYDAIAKQKLPKMVYDYYASGAEDQWTLQENRNAFARILFRPRILIDVSKIDMTTTVLGFKISMPIMVAPTAMQKMAHPDGEYATARAASAAGTIMTLSSWATSSVEEVASTGPGIRFFQLYVYKNRNVVEQLVRRAERAGFKAIALTVDTPRLGRRESDIKNRFTLPPNLTLKNFEGLDLGKMDEANDSGLASYVAGQIDRTLSWKDVQWLQTITKLPILVKGVLTGEDARIAIQAGAAGIIVSNHGARQLDYVPADISALEEVVKATQGRIPVFLDGGVRRGTDVFKALALGASGIFIGRPVVFSLAAEGEAGVRKVLQMLRDEFELTMALSGCRSLKEISRNHITTEWDTPRPSARL
B8: AtGOX1 (Arabidopsis thaliana; T158V) (protein)
chain: B7 chain with T158V, D265T
B9: AtGOX1 (Arabidopsis thaliana) (protein)
chain: B7 chain with D265T
notes: full length (367 residues), N-terminal His-tag, pET28a, expressed in Escherichia coli
B10: AtGOX1 (Arabidopsis thaliana; T4D) (protein)
chain: B7 chain with T4D, D265T

Columns and labels:
Conditions in all cases: 50 mM Tris-HCl pH 8.0, 0.1 mM FMN, 30 °C
purified protein [1] = substrate: C[C@H](O)C(=O)O; assay: purified protein
[2] = substrate: CCCCCCC(O)C(=O)O; assay: H2O2 detection, horseradish peroxidase / o-dianisidine coupled assay; type: biochemical, Zea mays
From the text: H2O2 detection, horseradish peroxidase / o-dianisidine coupled assay on ZmGO1

purified protein [3] = substrate: O=C(O)CO; assay: purified protein
[4] = substrate: CCCCCCC(O)C(=O)O; assay: H2O2 detection, horseradish peroxidase / o-dianisidine coupled assay; type: biochemical, Arabidopsis thaliana

| Protein | Km (purified protein [1]) [µM] | kcat (purified protein [1]) [s⁻¹] | Km (purified protein [3]) [µM] | kcat (purified protein [3]) [s⁻¹] | other results |
| --- | --- | --- | --- | --- | --- |
| B1 | 495 ± 75 | 10.8 |  |  | Km [2]: 136 ± 19 µM; kcat [2]: 5.89 ± 0.14 s⁻¹ |
| B2 |  |  |  |  | Km ([2]; printed as T158V in Table 3): 48 ± 36 µM; kcat ([2]; printed as T158V in Table 3): 3.22 ± 0.39 s⁻¹ |
| B3 |  |  | 388 ± 159 | 2.06 ± 1.09 |  |
| B4 |  |  | 390 ± 215 | 1.40 ± 0.42 |  |
| B5 | 2094 ± 791 | 6.81 | 279 ± 30 | 10.93 ± 3.48 | Km [4]: 487 ± 99 µM; kcat [4]: 3.78 ± 1.26 s⁻¹ |
| B6 |  |  | 133 ± 83 | 2.49 ± 0.60 |  |
| B7 |  |  | 531 ± 50 | 0.14 ± 0.06 |  |
| B8 |  |  | 100 ± 19 | 2.36 ± 0.47 |  |
| B9 | 1664 ± 293 | 9.09 | 210 ± 90 | 11.12 ± 3.08 | Km [4]: 757 ± 82 µM; kcat [4]: 5.95 ± 0.58 s⁻¹ |
| B10 |  |  | 151 ± 44 | 0.61 ± 0.46 |  |
